From publication PMC3237003 (Toxins, 2011) come the findings set out here.

The labels stand for the following.
B1: sdAb Abr5 (VHH)
VHH: EVQLQASGGGLVQAGGSLRLSCVVSGLSVGLNPVAWYRQAPGQQRDWVARMSMRGLTDYPDSLKGRAIISRDNAKNTVSLQMDSLKPEDTAVYFCKVGLSYWGQGTQVTVSS
notes: source: E. coli Rosetta, soluble sdAb expression vector
B2: sdAb Abr2 (VHH)
VHH: DVQLQASGGGLVQAGGSLVLSCTASGRSVSSLAMGWLRQVPGKERELVGSISLSGGRTYYADSMKGRFTISKDNAKNTVALQMNSLRPEDTAVYYCAARDAARDYAPLNFDTWGQGTQVTVSS
notes: as for B1
B3: sdAb Abr1 (VHH)
VHH: EVQLQASGGGLVQAGGSLRLSCAASGSDGSLEIMGWYRQAPGKQRELVARATSGGLKNYADSVKGRFTISGDLDKNTVYLQMNSLQPEDTGVYVCHLGVVASTYRDYWGQGTQVTVSS
notes: as for B1

The first assay deals with bovine serum albumin (BSA) (Bos taurus, UniProt P02769). As to the kind of experiment: Luminex direct binding (microsphere fluorescence immunoassay). The conditions noted are these: both partners purified.
Sequence of bovine serum albumin (BSA) (P02769 25-607): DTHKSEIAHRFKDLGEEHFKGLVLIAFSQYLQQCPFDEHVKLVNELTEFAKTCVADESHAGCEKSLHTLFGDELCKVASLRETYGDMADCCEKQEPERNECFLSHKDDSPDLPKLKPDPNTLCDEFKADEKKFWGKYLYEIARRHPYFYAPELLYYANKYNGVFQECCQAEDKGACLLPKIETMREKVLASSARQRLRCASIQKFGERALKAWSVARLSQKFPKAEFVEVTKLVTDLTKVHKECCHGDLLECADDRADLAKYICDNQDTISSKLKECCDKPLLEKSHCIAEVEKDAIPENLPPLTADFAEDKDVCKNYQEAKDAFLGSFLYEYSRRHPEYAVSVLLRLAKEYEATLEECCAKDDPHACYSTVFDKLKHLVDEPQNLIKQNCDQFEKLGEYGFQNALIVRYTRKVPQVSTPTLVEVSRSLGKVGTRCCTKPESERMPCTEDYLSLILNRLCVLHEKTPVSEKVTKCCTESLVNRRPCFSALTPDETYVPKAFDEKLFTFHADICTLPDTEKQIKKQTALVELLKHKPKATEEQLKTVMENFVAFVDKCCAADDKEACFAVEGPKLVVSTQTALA
Turning to B1, the binding result is on record as “no binding”.
For the molecule B2, the binding result was “no binding”.
For B3, the binding result was “no binding”.

For another assay, the target named is T1, staphylococcal enterotoxin B (SEB) (Staphylococcus aureus, strain , UniProt P01552).
T1 construct: source: bought: Toxin Technology, Inc
T1 sequence (P01552 28-266): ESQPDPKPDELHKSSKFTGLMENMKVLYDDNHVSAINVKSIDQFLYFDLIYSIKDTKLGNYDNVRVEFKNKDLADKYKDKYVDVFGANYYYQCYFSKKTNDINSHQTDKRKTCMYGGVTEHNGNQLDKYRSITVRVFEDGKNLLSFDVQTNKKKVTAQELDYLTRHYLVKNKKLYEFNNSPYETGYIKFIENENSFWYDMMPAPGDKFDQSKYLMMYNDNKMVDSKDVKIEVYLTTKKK
The description is as above. The conditions noted are these: both partners purified.
Consider B1, for which the binding result is given as “no binding”.
For B2, the binding result is reported as “no binding”.
Still for that read-out and setting: as for B3, the entry is “no binding”.
